Experimental data reported in PMC5770554, “Molecular Insights into Function and Competitive Inhibition of Pseudomonas aeruginosa Multiple Virulence Factor Regulator” (mBio, 2018).

Target: the molecule itself
Assay: crystal structure; MvfR LBD with the inhibitor M64 bound; space group C 2 2 2_(1), 2.65 Å, two monomers in the asymmetric unit; tetrameric arrangement in the crystal

B1: MvfR ligand binding domain (LBD), residues 94 to 295 (domain or fragment)
chain: TNLRVLLDTAIPPSFCDTVSSVLLDDFNMVSLIRTSPADSLATIKQDNAEIDIAITIDEELKISRFNQCVLGYTKAFVVAHPQHPLCNASLHSIASLANYRQISLGSRSGQHSNLLRPVSDKVLFVENFDDMLRLVEAGVGWGIAPHYFVEERLRNGTLAVLSELYEPGGIDTKVYCYYNTALESERSFLRFLESARQRLREL
notes: Thr that precedes residue 94 in the construct (His-THB-SUMO-ULP-Thr) and is left after cleavage with SEN protease; the model numbers it Thr93; Q9I4X0 is the entry of strain PAO1; Cloned into pET28a; the model comprises Thr93 to Leu295; also called MvfR LBD; PqsR LBD; source: E. coli BL21(DE3), purified (Ni-NTA, negative Ni-NTA after cleavage of the tag with SEN protease, gel filtration); not …
stoichiometry N: 4
